Read-outs that look alike come from different tables or passages of the source.
How the values were obtained:
Human Bax alpha (human) [1] = target: Human Bax alpha (human) (UniProt Q07812); assay: cross-linking
Human Bax alpha (human) [2] = target: Human Bax alpha (human) (UniProt Q07812); assay: cross-linking; remark: listed apart in the source

Human Bax alpha (from UniProt Q07812 1-192) (natural protein)
stoichiometry N (Human Bax alpha (human) [1]): 2 | stoichiometry N (Human Bax alpha (human) [2]): < 8
